Results reported in publication PMC7587441, “Plasmodium falciparum Apicomplexan-Specific Glucosamine-6-Phosphate N-Acetyltransferase Is Key for Amino Sugar Metabolism and Asexual Blood Stage Development” (mBio, 2020).

Molecular target: Cryptosporidium parvum glucosamine-6-phosphate N-acetyltransferase (CpGNA1) (Cryptosporidium parvum)
Experiment: crystal structure; CpGNA1 (1.5 mg/ml) cocrystallised with 10 mM acetyl-CoA, soaked with 50 mM acetyl-CoA and 50 mM Glc6P; space group P2(1)2(1)2(1), two monomers in the asymmetric unit; 1.95 Å

In the case of “Cryptosporidium parvum glucosamine-6-phosphate N-acetyltransferase (CpGNA1) (enzyme)”, the stoichiometry N is reported as 2.
